Reference: patent publication US20220195028A1 (Janssen / Centocor, published 2022)

Assays:
[1] = target: T1, recombinant human TNFα (human, UniProt P01375 77-233); assay: 125I-TNFα binding to plate-coated p55-sf2 in presence of varying amounts of mAb in hybridoma supernatant
T1 construct: also called huTNFα; tumor necrosis factor alpha
Method: (§1) 50:l of p55-sf2 at 0.5:g/ml in PBS was added to Optiplates to coat the wells during a one-hour incubation at 37° C. Serial dilutions of the eight TNV cell supernatants were prepared in 96-well round-bottom plates using PBS/0.1% BSA as diluent. […] The mixture was preincubated for one hour at RT. The coated Optiplates were washed to remove unbound p55-sf2 and 50:l of the ¹²⁵I-TNFα/cell supernatant mixture was transferred to the Optiplates. After 2 hrs at RT, Optiplates were washed three times with PBS-Tween. 100:l of Microscint-20 was added and the cpm bound determined using the TopCount gamma counter.
A simple binding assay was done to determine whether the eight TNV mAbs contained in hybridoma cell supernatant were capable of blocking TNFα binding to receptor. The concentrations of the TNV mAbs in their respective cell supernatants were first determined by standard ELISA analysis for human IgG.

[2] = target: T1, recombinant human TNFα; assay: competition radioligand assay: mAb in hybridoma supernatant preincubated with 5 ng/ml 125I-TNFα, then binding of TNFα to plate-coated p55-sf2 counted as cpm bound
Method: Varying amounts of hybridoma cell supernatants containing known amounts of TNV mAb were preincubated with a fixed concentration (5 ng/ml) of ¹²⁵I-labeled TNFα. […] The amount of TNFα that bound to the p55 receptor in the presence of the mAbs was determined after washing away the unbound material and counting using a gamma counter. Although eight TNV mAb samples were tested in these experiments, for simplicity three of the mAbs that were shown by DNA sequence analyses to be identical to one of the other TNV mAbs (see Section 5.2.2) are not shown here. Each sample was tested in duplicate. The results shown are representative of two independent experiments.
as §1

[3] = target: T1, recombinant human TNFα; assay: cell-based or functional assay

fold better at blocking TNF binding to p55-sf2 (against TNV118 and TNV14) [1] [fold] | IC50 (read off the curve) [2] [ng/mL] | neutralizing TNFα bioactivity (potency relative to TNV14) [3] [fold] | Binder
~4 | ~4 | 4 | TNV148 (antibody, human IgG1, V domains shown, also called GenTNV148.26.12; C420A) VH: QVQLVESGGGVVQPGRSLRLSCAASGFIFSSYAMHWVRQAPGNGLEWVAFMSYDGSNKKYADSVKGRFTISRDNPKNTLYLQMNSLRAEDTAVYYCARDRGIAAGGNYYYYGMDVWGQGTTVTVSS VL: EIVLTQSPATLSLSPGERATLSCRASQSVYSYLAWYQQKPGQAPRLLIYDASNRATGIPARFSGSGSGTDFTLTISSLEPEDFAVYYCQQRSNWPPFTFGPGTKVDIKR
~4 | – | – | TNV86 (antibody, human IgG1, V domains shown, also called GenTNV86.14.34; C417A) VH: QVQLVESGGGVVQPGRSLRLSCAASGFIFSSYAMHWVRQAPGNGLEWVAFMSYDGSNKKYADSVKGRFTISRDNPKNTLYLQMNSLRAEDTAVYYCARDRGIAAGGNYYYYGMDVWGQGTTVTVSS VL: EIVLTQSPATLSLSPGERATLSCRASQSVYSYLAWYQQKPGQAPRLLIYDASNRATGIPARFSGSGSGTDFTLTISSLEPEDFAVYYCQQRSNWPPFTFGPGTKVDIKR
